Data on three molecules can be found in paper PMC4176481, “Influence of D-glutamine and D-glutamic acid sequences in optical peptide probes targeted against the cholecystokinin-2/gastrin-receptor on binding affinity, specificity and pharmacokinetic properties” (EJNMMI Research, 2013).

The target of assay [1] is T1, CCK2R (A431/CCK2R cells) (Homo sapiens, UniProt P32239).
T1 construct: expressed in transfected cells; host or cells: A431 human epidermoid carcinoma cells, stably transfected (gift from Dr. Luigi Aloj)
T1 sequence (P32239 1-447): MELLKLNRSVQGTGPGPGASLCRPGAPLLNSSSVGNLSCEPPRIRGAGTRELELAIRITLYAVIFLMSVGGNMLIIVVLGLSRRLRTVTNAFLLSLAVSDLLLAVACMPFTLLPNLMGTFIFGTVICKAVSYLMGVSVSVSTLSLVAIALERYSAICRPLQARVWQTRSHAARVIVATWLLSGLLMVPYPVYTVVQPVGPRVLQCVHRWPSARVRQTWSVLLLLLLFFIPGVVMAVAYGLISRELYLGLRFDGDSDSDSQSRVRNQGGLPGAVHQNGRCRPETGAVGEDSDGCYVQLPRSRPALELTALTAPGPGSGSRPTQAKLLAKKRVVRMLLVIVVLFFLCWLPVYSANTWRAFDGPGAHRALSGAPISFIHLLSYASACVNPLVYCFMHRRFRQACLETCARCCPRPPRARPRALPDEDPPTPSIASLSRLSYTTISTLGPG
Details: method as in PMID 23591397. To be noted: earlier probe with a spacer of six uncharged D-glutamines; read-out: dissociation constant Kd; cited from earlier work.

Assay [2] concerns the target T2, cholecystokinin-2/gastrin receptor (CCK2R) (Homo sapiens, UniProt P32239).
T2 chain: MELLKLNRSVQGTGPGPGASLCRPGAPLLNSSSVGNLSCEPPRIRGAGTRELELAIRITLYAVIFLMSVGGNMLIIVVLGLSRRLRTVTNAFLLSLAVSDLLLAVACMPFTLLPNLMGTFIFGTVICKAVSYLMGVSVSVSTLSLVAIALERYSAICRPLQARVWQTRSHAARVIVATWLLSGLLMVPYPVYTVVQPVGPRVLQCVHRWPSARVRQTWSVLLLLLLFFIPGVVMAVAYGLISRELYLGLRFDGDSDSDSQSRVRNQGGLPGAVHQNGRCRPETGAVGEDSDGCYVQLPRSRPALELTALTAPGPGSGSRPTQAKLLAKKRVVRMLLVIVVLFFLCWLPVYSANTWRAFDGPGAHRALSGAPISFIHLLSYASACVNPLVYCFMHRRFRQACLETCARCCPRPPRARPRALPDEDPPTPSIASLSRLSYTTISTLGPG
Briefly: competition with QE probe on cells, NIR fluorescence.

Assay [3] has as its target T2, cholecystokinin-2/gastrin receptor …. Nature of the assay: competition with bivQ probe on cells, NIR fluorescence.
The target is the same in assay [4]. Nature of the assay: saturation binding on A431/CCK2R cells, NIR fluorescence.

One may read the Kd as a measure of binding affinity in units of concentration. Broadly, the IC50 is the concentration that inhibits the measured activity by half. A low value points to greater potency.

As to “dQ-MG-754: previously published optical minigastrin probe with a spacer of six uncharged D-glutamines and DY-754 (ref 20) (QQQQQQAYGWMDF; not fully specified; Synthetic minigastrin analogue; Residues 1-6 are D-Gln (the text states a spacer of six D-glutamines))”, in assay [1], the Kd is 1.8 ± 0.6 nM.

Take LEEEEEAYGWMDF [HG-13 minigastrin]: the IC50 is 16.7 nM in assay [2] and 16.6 nM in assay [3].

B1: QE minigastrin probe (peptide)
chain: {DY‑754}-AYGWMDF-NH2
modifications: also: N-terminal spacer of three alternating D-Gln and three D-Glu, order not given here, M5: Met or Nle
In the case of B1, the Kd in assay [4] was determined as 5.8 nM.
